According to PMC6820557, “Discovery of dual-activity small-molecule ligands of Pseudomonas aeruginosa LpxA and LpxD using SPR and X-ray crystallography” (Scientific Reports, 2019):

Experiments:
[1] = molecular target: the molecule itself; experiment: SEC; HiLoad 16/60 Superdex 75; 20 mM Tris pH 8.6, 250 mM NaCl, 1 mM EDTA
[2] = molecular target: the molecule itself; experiment: crystal structure; LpxA soaked with compound 1 (2.10 Å) or compound 2 (2.00 Å); P212121, six monomers per asymmetric unit; 12% PEG 1000, 0.2 M calcium acetate, 0.1 M imidazole pH 7.0
[3] = molecular target: the molecule itself; experiment: SEC; HiLoad 16/60 Superdex 75; 20 mM Tris-HCl pH 8.6, 250 mM NaCl

B1: biotinylated avidity (Avi) tagged LpxD (enzyme, Pseudomonas aeruginosa, UniProt Q9HXY6 1-353, looked up)
chain: MMSTLSYTLGQLAAHVGAEVRGDADLPIQGLATLQEAGPAQLSFLANPQYRKYLPESRAGAVLLTAADADGFAGTALVVANPYLAYASLSHLFDRKPKAAAGIHPTAIVAADAEVDPSASVGAYAVIESGARIGAGVSIGAHCVIGARSVIGEGGWLAPRVTLYHDVTIGARVSIQSGAVIGGEGFGFANEKGVWQKIAQIGGVTIGDDVEIGANTTIDRGALSDTLIGNGVKLDNQIMIAHNVQIGDHTAMAACVGISGSAKIGRHCMLAGGVGLVGHIEICDNVFVTGMTMVTRSITEPGSYSSGTAMQPAAEWKKSAARIRQLDDMARRLQQLEKRLAAVTSSGDASSDA
modifications: biotin (on the Avi tag)
notes: LpxD, Pseudomonas aeruginosa; gene inserted into the BamHI and HindIII sites of the pAvibir plasmid; printed mass of Avi-LpxD 39.8 kDa; also called Avi-LpxD; source: E. coli Rosetta DE3 pLysS, purified (HisTrap, Superdex 75)
[1]
  stoichiometry N: 3

B2: P. aeruginosa LpxA (enzyme, Pseudomonas aeruginosa)
chain: MSLIDPRAIIDPSARLAADVQVGPWSIVGAEVEIGEGTVIGPHVVLKGPTKIGKHNRIYQFSSVGEDTPDLKYKGEPTRLVIGDHNVIREGVTIHRGTVQDRAETTIGDHNLIMAYAHIGHDSVIGNHCILVNNTALAGHVHVDDWAILSGYTLVHQYCRIGAHSFSGMGSAIGKDVPAYVTVFGNPAEARSMNFEGMRRRGFSSEAIHALRRAYKVVYRQGHTVEEALAELAESAAQFPEVAVFRDSIQSATRGITR
notes: LpxA, Pseudomonas aeruginosa; Two of the deposited entries 6UEC, 6UED, 6UEE, 6UEG hold this protein
[2]
  binding result: binds

B3: biotinylated avidity (Avi) tagged LpxA (enzyme, Pseudomonas aeruginosa, UniProt Q9X6P4 1-258, looked up)
chain: MSLIDPRAIIDPSARLAADVQVGPWSIVGAEVEIGEGTVIGPHVVLKGPTKIGKHNRIYQFSSVGEDTPDLKYKGEPTRLVIGDHNVIREGVTIHRGTVQDRAETTIGDHNLIMAYAHIGHDSVIGNHCILVNNTALAGHVHVDDWAILSGYTLVHQYCRIGAHSFSGMGSAIGKDVPAYVTVFGNPAEARSMNFEGMRRRGFSSEAIHALRRAYKVVYRQGHTVEEALAELAESAAQFPEVAVFRDSIQSATRGITR
modifications: biotin (on the Avi tag)
notes: LpxA, Pseudomonas aeruginosa; gene inserted into the BamHI and HindIII sites of the pAvibir plasmid; printed mass of Avi-LpxA 31.6 kDa; also called Avi-LpxA; source: E. coli Rosetta DE3 pLysS, purified (HisTrap, Superdex 75)
[1]
  stoichiometry N: 3

B4: N-terminal His-tagged P. aeruginosa LpxD with a 2 amino acid deletion (enzyme, Pseudomonas aeruginosa, UniProt Q9HXY6 3-353, looked up)
chain: STLSYTLGQLAAHVGAEVRGDADLPIQGLATLQEAGPAQLSFLANPQYRKYLPESRAGAVLLTAADADGFAGTALVVANPYLAYASLSHLFDRKPKAAAGIHPTAIVAADAEVDPSASVGAYAVIESGARIGAGVSIGAHCVIGARSVIGEGGWLAPRVTLYHDVTIGARVSIQSGAVIGGEGFGFANEKGVWQKIAQIGGVTIGDDVEIGANTTIDRGALSDTLIGNGVKLDNQIMIAHNVQIGDHTAMAACVGISGSAKIGRHCMLAGGVGLVGHIEICDNVFVTGMTMVTRSITEPGSYSSGTAMQPAAEWKKSAARIRQLDDMARRLQQLEKRLAAVTSSGDASSDA
notes: LpxD, Pseudomonas aeruginosa; they lay immediately after the N-terminal 18-AA hexahistidine tag and protease site (thrombin site replaced by a TEV site); Parent construct is that of the published structure (PDB 3PMO), with the thrombin site replaced by a TEV site; The mutagenesis primer reads ENLYFQG followed by STLSYT; Two of the deposited entries 6UEC, 6UED, 6UEE, 6UEG hold this construct; also …
[3]
  stoichiometry N: 3
